Measurements: publication PMC5655142, “Anti-diabetic drug binding site in a mammalian KATP channel revealed by Cryo-EM” (eLife, 2017)

Target: the molecule itself
Assay: cryo-EM structure; purified SUR1/Kir6.2 KATP channel in digitonin, 1 mM ATP (no Mg2+) and 1 µM glibenclamide; C4 symmetry imposed; 3.63 Å

B1: rat Kir6.2 (natural protein)
chain: MLSRKGIIPEEYVLTRLAEDPTEPRYRTRERRARFVSKKGNCNVAHKNIREQGRFLQDVFTTLVDLKWPHTLLIFTMSFLCSWLLFAMVWWLIAFAHGDLAPGEGTNVPCVTSIHSFSSAFLFSIEVQVTIGFGGRMVTEECPLAILILIVQNIVGLMINAIMLGCIFMKTAQAHRRAETLIFSKHAVITLRHGRLCFMLRVGDLRKSMIISATIHMQVVRKTTSPEGEVVPLHQVDIPMENGVGGNSIFLVAPLIIYHVIDSNSPLYDLAPSDLHHHQDLEIIVILEGVVETTGITTQARTSYLADEILWGQRFVPIVAEEDGRYSVDYSKFGNTVKVPTPLCTARQLDEDRSLLDALTLASSRGPLRKRSVAVAKAKPKFSISPDSLS
notes: the final model holds residues 32-352, the distal N- and C-termini were not seen in the map; source: INS-1 clone 832/13 cells, infected with recombinant adenovirus, co-expressed with FLAG-SUR1; purified as the channel complex (digitonin, anti-FLAG M2 agarose, FLAG peptide elution)
  stoichiometry N: 4
